These results are taken from patent publication US20030143191A1 (published 2003).

The target in this assay is T1, CCR5 (G-protein coupled chemokine receptor) on human PBMC (human, UniProt P51681 1-352).
T1 construct: whole, on cells; The cells were primary PBMC, not transfectants, so the receptor is assigned through the CCR5 agonist MIP-1β; also called G-protein Chemokine Receptor CCR5
Kind of assay: 125I-MIP-1β competition binding on human PBMC cultured 2 days; labelled competitor 0.17 nM 125I-MIP-1β; cells preincubated with supernatant 45 min at 37 °C, then hot ligand 60 min at RT; cell pellet collected by density centrifugation through oil; readout cpm. The method, then: Human PBMC were purified from whole blood and cultured for 2 days. […] After 60 minutes, cell bound ¹²⁵I-MIP-1 was separated from unbound ¹²⁵I-MIP-1, and the radioactivity determined.
PBMCs were grown, purified, and suspended in calcium buffer as described above in Example 49.

T1 sequence (P51681 whole entry): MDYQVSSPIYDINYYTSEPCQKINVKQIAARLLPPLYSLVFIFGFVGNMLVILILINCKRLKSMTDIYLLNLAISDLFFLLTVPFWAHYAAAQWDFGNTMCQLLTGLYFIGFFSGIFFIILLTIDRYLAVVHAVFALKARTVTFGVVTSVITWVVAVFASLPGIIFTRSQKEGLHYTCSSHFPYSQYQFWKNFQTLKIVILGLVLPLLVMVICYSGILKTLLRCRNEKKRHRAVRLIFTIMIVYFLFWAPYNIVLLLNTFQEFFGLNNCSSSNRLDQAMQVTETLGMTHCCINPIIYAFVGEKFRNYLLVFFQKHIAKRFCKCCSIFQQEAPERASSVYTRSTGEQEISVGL

B1: Ckb1 construct 1832 (pC4:MPIFsp.CKB1(G28-N93)), secreted product ck-beta-1 G28-N93 (ligand)
chain: GPYHPSECCFTYTTYKIPRQRIMDYYETNSQCSKPGIVFITKRGHSVCTNPSDKWVQDYIKDMKEN
notes: Non-fusion Ckb1, expressed in mammalian cells from pC4
B1: the binding result is listed as “binds”.
